In article PMC3688876:

Molecular target: Apo2L/TRAIL-R1/DR4 (human (endogenous in MCF-7)) (UniProt O00220)
Sequence of UniProt O00220 (O00220 24-468): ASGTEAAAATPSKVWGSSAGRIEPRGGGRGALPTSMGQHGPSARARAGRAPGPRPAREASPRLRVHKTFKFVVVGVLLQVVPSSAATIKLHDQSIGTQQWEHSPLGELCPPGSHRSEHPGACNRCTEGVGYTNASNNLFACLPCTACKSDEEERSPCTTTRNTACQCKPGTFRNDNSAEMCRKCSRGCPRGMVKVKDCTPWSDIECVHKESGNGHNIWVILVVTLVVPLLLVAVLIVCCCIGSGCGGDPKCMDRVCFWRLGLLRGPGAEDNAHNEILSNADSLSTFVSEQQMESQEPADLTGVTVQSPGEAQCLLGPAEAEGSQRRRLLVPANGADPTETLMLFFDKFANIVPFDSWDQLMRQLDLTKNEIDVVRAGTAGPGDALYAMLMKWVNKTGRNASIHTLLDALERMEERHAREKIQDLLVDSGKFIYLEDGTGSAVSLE

“Human recombinant Apo2L/TRAIL (from UniProt P50591 1-281) (ligand)” was tested, and the cellular apoptosis (viability by crystal violet, OD570) of MCF-7 PTHrP overexpressing cells pre-incubated with antagonistic anti-TRAIL-R1 antibody (10 µg/ml), then treated with 100 ng/ml Apo2L/TRAIL was 50%.
